The text below walks through data of US5756665A, “Peptide isolated from micrococcus varians and use thereof” (priority 1995, dated 1998).

What all share (type): cell-based
Data set [1] concerns strain Lactococcus lactis which produces lacticin 481. The experiment in a line: Inhibition spectrum test on the lacticin 481 producer.
Data set [2] relates to Gram-negative bacteria. The experiment in a line: Inhibition spectrum, summary for Gram-negative bacteria. Conditions: summary of Table V. The source says: The inhibition spectrum of the supernatant is thus determined.
For data set [3], the system named is Lactobacillus helveticus (N 2). Description: Resistance to heat and to pH, agar well test. Conditions: pH 4 or 7 combined with elevated temperature.
Data set [4] relates to Lactobacillus helveticus (N 2). The experiment in a line: Resistance to heat, agar well test. Conditions: 60 min incubation at 100 °C.
Data set [5] relates to Lactobacillus helveticus (N 2). The experiment in a line: Resistance to pH, agar well test. To be noted: pH 2 to 10.
For data set [6], the system named is Lactobacillus helveticus (N 2). The experiment in a line: Inactivation by enzymes, agar well test.

lacticin 481: the “growth of the lacticin 481-producing strain in the presence of the bacteriocin” value in data set [1] is reported as “immune”.

On to “variacin: bacteriocin from Micrococcus varians strains CNCM I-1586 and CNCM I-1587, amino acid sequence SEQ ID NO:1, 2659 daltons (GSGVIPTISHECHMNSFQFVFTCCS)”, for which, in data set [2], the “inhibitory effect on the growth of Gram-negative bacteria” value is “does not exert any inhibitory effect”. Further, the “bactericidal activity after heat and pH” value in data set [3] was “not compromised”. The “bactericidal activity after heat” value in data set [4] is “not compromised”. For the same substance, the “pH dependence of bactericidal activity” value in data set [5] is listed as “not pH-dependent”. Also, the “influence of catalase on bactericidal activity” value in data set [6] (Tables I and II, two indicator strains) was “not found to exert any influence”. In addition, the “effect of proteolytic enzymes on bactericidal activity” value in data set [6] (all proteolytic enzymes of Tables I and II) is on record as “suppress the bactericidal activity”.
